Results from US20160068844A1 (Sanofi, published 2016).

Key:
mouse IL17A = molecular target: T1, mouse IL17A (mouse, UniProt Q62386 26-158); assay: ELISA, plates coated with IL17A, serial dilutions of sIL17R, detection with biotinylated anti-IL17RA and streptavidin-HRP
T1 construct: also called recombinant mouse Il17a
T1 sequence (looked up): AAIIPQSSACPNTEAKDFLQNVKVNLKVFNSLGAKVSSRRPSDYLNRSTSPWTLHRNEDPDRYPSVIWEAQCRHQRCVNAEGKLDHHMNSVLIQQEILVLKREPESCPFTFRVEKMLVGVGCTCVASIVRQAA
Procedure: (§1) For sIL17R binding to IL17A, ELISA plates were coated with 100 μg/ml human IL17A or mouse IL17A overnight, then blocked with 1% BSA. Serial two-fold dilutions of sIL17R were added in triplicate to the plate and incubated for 1 h at 37° C. Unbound receptor was washed from the plate in an ELISA plate washer. 100 μl biotinylated anti-IL17RA (1 μg/ml) was added to each well and incubated 1 h at room temperature and excess antibody was washed away. Each well was incubated with streptavidin-HRP conjugate and washed. Bound HRP was measured by incubation with TMBD substrate for 20 minutes followed by addition of acid stop solution. OD was measured at 450 nm.

human IL17A = molecular target: T2, human IL17A (human, UniProt Q16552 24-155); assay: as above
T2 construct: also called interleukin-17A
T2 sequence (looked up): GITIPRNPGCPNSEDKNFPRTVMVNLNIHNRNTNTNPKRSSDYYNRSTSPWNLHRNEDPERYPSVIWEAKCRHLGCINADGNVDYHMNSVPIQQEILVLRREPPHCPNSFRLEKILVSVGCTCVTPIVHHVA
Procedure: as §1

B1: sIL17R-9gly-CH3 (soluble human IL-17 receptor A linked by nine glycines to the CH3 domain of human IgG1) (Fc fusion)
chain: SLRLLDHRALVCSQPGLNCTVKNSTCLDDSWIHPRNLTPSSPKDLQIQLHFAHTQQGDLFPVAHIEWTLQTDASILYLEGAELSVLQLNTNERLCVRFEFLSKLRHHHRRWRFTFSHFVVDPDQEYEVTVHHLPKPIPDGDPNHQSKNFLVPDCEHARMKVTTPCMSSGSLWDPNITVETLEAHQLRVSFTLWNESTHYQILLTSFPHMENHSCFEHMHHIPAPRPEEFHQRSNVTLTLRNLKGCCRHQVQIQPFFSSCLNDCLRHSATVSCPEMPDTPEPIPDYMTGGGGGGGGGQPREPQVYTLPPSRDELTKNQVSLTCLVKGFYPSDIAVEWESNGQPENNYKTTPPVLDSDGSFFLYSKLTVDKSRWQQGNVFSCSVMHEALHNHYTQKSLSLSPG
notes: also called sIL17RA-9gly-CH3; sIL17R-9G-CH3
binding result (mouse IL17A): binds | binding result (human IL17A): binds
